In publication PMC7341526 one finds percent of opticin in the collagen-containing pellet data, which are given here for 1 substance.

The assay has as its target vitreous collagen fibrils (rabbit), in the collagen-containing pellet (rabbit (endogenous in rabbit vitreous)). The experiment in a line: co-sedimentation; vitreous of uninjected rabbit eyes digested with hyaluronan lyase (24 h, 37 °C), centrifuged 13 000g 30 min; opticin in supernatant and collagen-containing pellet quantified by SRM-MS.

“endogenous rabbit opticin (natural protein)”: the percent of opticin in the collagen-containing pellet stood at 6%.
